Assay results: paper doi:10.1101/2025.03.26.645513v1

System: CC(=O)OC[C@H](N)C(=O)O
Test: purified protein
Conditions: 30 mM Na2S, MOPS, 37 °C, no glycerol, cooperative

In the case of NgCysK (Neisseria gonorrhoeae FA 1090), the K0.5 is reported as 1.541 ± 0.306 mM.
